Reference: patent US20260365734 (published 2026)
Blank lines part the entries; values can stand above or below the binder they belong to.

Legend:
[1] = molecular target: T1, human PD-L1 (cell surface) (human, UniProt Q9NZQ7); assay: FACS
[2] = molecular target: T2, mouse PD-L1 (cell surface) (mouse, UniProt Q9EP73); assay: FACS, Hepa1-6 cells
[3] = molecular target: T2, mouse PD-L1 (cell surface); assay: FACS, 293T m-PD-L1 cells
[4] = molecular target: T1, human PD-L1 (cell surface); assay: FACS; remark: listed apart in the source
[5] = molecular target: T1, human PD-L1 (cell surface); assay: FACS, T24 cells
cynomolgus PD-L1 = cynomolgus PD-L1 (cynomolgus); assay: BLI
human PD-L1 ECD = human PD-L1 ECD (human, UniProt Q9NZQ7); assay: BLI
[6] = molecular target: T1, human PD-L1 (cell surface); assay: FACS, CHO-h-PD-L1 cells
[7] = molecular target: T1, human PD-L1 (cell surface); assay: FACS, NCI-H441 cells

T1 sequence (Q9NZQ7 19-238): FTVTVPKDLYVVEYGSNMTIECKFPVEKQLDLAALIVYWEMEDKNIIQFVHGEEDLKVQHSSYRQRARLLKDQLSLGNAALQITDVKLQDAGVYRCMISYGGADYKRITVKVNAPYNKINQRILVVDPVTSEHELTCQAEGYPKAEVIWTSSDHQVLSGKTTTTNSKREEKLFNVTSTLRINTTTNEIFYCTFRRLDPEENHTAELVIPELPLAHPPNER
T2 sequence (Q9EP73 19-238): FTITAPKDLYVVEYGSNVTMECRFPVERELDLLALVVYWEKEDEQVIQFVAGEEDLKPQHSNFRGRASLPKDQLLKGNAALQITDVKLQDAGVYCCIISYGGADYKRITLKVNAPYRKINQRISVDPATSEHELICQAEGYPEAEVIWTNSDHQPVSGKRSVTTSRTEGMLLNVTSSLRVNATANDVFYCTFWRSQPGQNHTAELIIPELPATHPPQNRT
Chain of human PD-L1 ECD (Q9NZQ7 19-238): as the sequence (Q9NZQ7 19-238) above
Chain of cynomolgus PD-L1 (cynomolgus) (chain, as listed by the source): as the sequence (Q9NZQ7 19-238) above, with A33T, A34S, S62N, R68Q, Q82R, F173L, T185A, T192I, H215L counted along it

- EC50 [1]: 1.16 nM
B1: R3-2A11 (antibody, V domains shown)
VH: QVQLVESGGDLVQPGGSLRLSCAASGIDFSDTHMGWYRQAPGKQRELVALITSGGFTDYPDSVKGRFTISRDNAKNTMYLQMNTLKLEDTAVYYCNARRTTIYWGQGTQVTVSS

- EC50 [1]: 0.54 nM
B2: R2-6A10 (antibody, V domains shown)
VH: QVQLVESGGGLVQPGGSLRLSCAASGIDFSDTHMGWYRQAPGKERELVALITSGGFTDYADSVKGRFTISRDNAKNTMYLQMNTLKFEDTAVYYCNARRSTIYWGQGTQVTVSS

- EC50 [1]: 0.63 nM
B3: R2-1G10 (antibody, V domains shown)
VH: QVQLVESGGGLVQPGGSLRLSCAASGIFFSDTHMGWYRQAPGKERELVAIITSGGSTDYVDSVKGRFTISRDNAKNTVYLQMNSLKFEDTAVYYCNARRTTIYWGQGTQVTVSS

- EC50 [1]: 0.6 nM
B4: R2-3A5 (antibody, V domains shown)
VH: EVQLVESGGGLVQPGGSLRLSCAASGIDFSDTHMGWYRQAPGKQRELVALITSGGFTDYADSVKGRFTISRDNAKNTMYLQMNTLKLEDTAVYYCNARRTTIYWGQGTQVTVSS

- EC50 [1]: 0.42 nM
B5: R2-1G4 (antibody, V domains shown)
VH: QVQLVESGGGLVQPGGSLRLSCAASGIDFSDTHMGWYRQAPGKERELVALITSGGFTDYADSVKGRFTISRDNAKNTMYLQMNTLKFEDTAVYYCNARRTTIYWGQGTQVTVSS

- EC50 [1]: 1.69 nM
B6: R1-1C3 (antibody, V domains shown)
VH: EVQLVQSGGGLVQPGGSLRLSCAASGIFFSDTHMGWYRQAPGKERELVAIITSGGSTDYVDSVKGRFTISRDNAKNTVYLQMNTLKFEDTAVYYCNARRTTIYWGQGTQVTVSS

- EC50 [1]: 0.93 nM
B7: R2-6D2 (antibody, V domains shown)
VH: QVQLVESGGGLVQPGGSLRLSCAASGIDFSDTHMGWYRQAPGKERELVALITSGGFTDYADSVKGRFTISRDNAKNTMYLQMNTLKFEDTAVYYCNARKTTIYWGQGTQVTVSS

- EC50 [1]: 0.88 nM
B8: R2-1A3 (antibody, V domains shown)
VH: EVQLVESGGGLVQPGGSLRLSCVASGFDFSDTHMGWYRQAPGKQRELVALITSGAFTDYADSVKGRFTISRDNAKNTVYLQMNTLKFEDTAVYYCNARRTTIYWGQGTQVTVSS

- EC50 [2]: 6.78 nM
- EC50 [3]: 0.56 nM
B9: 3H1-hv7 (antibody, V domains shown)
VH: QVQLVESGGGVVQPGGSLRLSCAASGIDFSDTHMHWVRQAPGKQRELVAIITSGGSTDYVDSVKGRFTISRDNSKNTLYLQMNSLRAEDTAVYYCNARRSTIYWGQGTQVTVSS

- EC50 [2]: 0.55 nM
- EC50 [3]: 1.01 nM
B10: 3H1-1G9 (antibody, V domains shown)
VH: QVQLVESGGGVVQPGGSLRLSCAASGIDFDDTHMHWVRQAPGKQRELVAIITSGGLTDYVDSVKGRFTISRDNSKNTLYLQMNSLRAEDTAVYYCNARTSTIYWGQGTQVTVSS

- EC50 [4]: 0.63 nM
B11: 5F8-4B12 (antibody, V domains shown)
VH: EVQLVESGGGLVQPGGSLRLSCAASGFDFPDTHMSWVRQAPGKERELVAIITSGGFTDYVDSVKGRFTISRDNSKNTLYLQMNSLRAEDTAVYYCRARRTTIYWGQGTQVTVSS

- EC50 [4]: 0.52 nM
B12: 5F8-6D6 (antibody, V domains shown)
VH: EVQLVESGGGLVQPGGSLRLSCAASGFDFSDTAMSWVRQAPGKERELVAIITSGGSVDYVDSVKGRFTISRDNSKNTLYLQMNSLRAEDTAVYYCRARRTTIYWGQGTQVTVSS

- EC50 [4]: 0.73 nM
B13: 5F8-3A3 (antibody, V domains shown)
VH: EVQLVESGGGLVQPGGSLRLSCAASGFDFSDTHMSWVRQAPGKERELVAIITGGGSTDYVDSVKGRFTISRDNSKNTLYLQMNSLRAEDTAVYYCLARRTTIYWGQGTQVTVSS

- EC50 [4]: 0.51 nM
B14: 5F8-8H3 (antibody, V domains shown)
VH: EVQLVESGGGLVQPGGSLRLSCAASGFDFSMTHMSWVRQAPGKERELVAIITSGGKTDYVDSVKGRFTISRDNSKNTLYLQMNSLRAEDTAVYYCNARRATIYWGQGTQVTVSS

- EC50 [4]: 0.49 nM
B15: 5F8-8D4 (antibody, V domains shown)
VH: EVQLVESGGGLVQPGGSLRLSCAASGFDFSDTFMSWVRQAPGKERELVAIITSGGSTDYVDSVKGRFTISRDNSKNTLYLQMNSLRAEDTAVYYCNARRTTIYWGQGTQVTVSS

- EC50 [2]: 0.51 nM
- EC50 [3]: 1.29 nM
B16: 3H1-6D2 (antibody, V domains shown)
VH: QVQLVESGGGVVQPGGSLRLSCAASGIDFNDTHMHWVRQAPGKQRELVAIITSRGSTDYVDSVKGRFTISRDNSKNTLYLQMNSLRAEDTAVYYCNARRSTLYWGQGTQVTVSS

- EC50 [2]: 0.31 nM
- EC50 [3]: 1.57 nM
B17: 3H1-2G3 (antibody, V domains shown)
VH: QVQLVESGGGVVQPGGSLRLSCAASGIDFSDTHMHWVRQAPGKQRELVAIITSSGSTDYVDSVKGRFTISRDNSKNTLYLQMNSLRAEDTAVYYCNARRSTILWGQGTQVTVSS

- EC50 [4]: 0.57 nM
B18: 5F8-8E3 (antibody, V domains shown)
VH: EVQLVESGGGLVQPGGSLRLSCAASGFDFSDTHMSWVRQAPGKERELVAIITSGGSTDYVDSVKGRFTISRDNSKNTLYLQMNSLRAEDTAVYYCNARLTTIYWGQGTQVTVSS

- EC50 [2]: 0.65 nM
- EC50 [3]: 1 nM
B19: 3H1-2F4 (antibody, V domains shown)
VH: QVQLVESGGGVVQPGGSLRLSCAASGIDFSDLHMHWVRQAPGKQRELVAIITSGGSTDYVDSVKGRFTISRDNSKNTLYLQMNSLRAEDTAVYYCNARSSTIYWGQGTQVTVSS

- EC50 [4]: 0.51 nM
B20: 5F8-7D5 (antibody, V domains shown)
VH: EVQLVESGGGLVQPGGSLRLSCAASGFDFEDTHMSWVRQAPGKERELVAIITSGCSTDYVDSVKGRFTISRDNSKNTLYLQMNSLRAEDTAVYYCNARRATIYWGQGTQVTVSS

- EC50 [2]: 0.31 nM
- EC50 [3]: 1.42 nM
B21: 3H1-2A2 (antibody, V domains shown)
VH: QVQLVESGGGVVQPGGSLRLSCAASGIDFSDTHMHWVRQAPGKQRELVAIITSGGFTDYVDSVKGRFTISRDNSKNTLYLQMNSLRAEDTAVYYCNARRSTIYWGQGTQVTVSS

- EC50 [2]: 0.3 nM
- EC50 [3]: 0.97 nM
B22: 3H1-3B9 (antibody, V domains shown)
VH: QVQLVESGGGVVQPGGSLRLSCAASGIDFSDTHMHWVRQAPGKQRELVAIITSGGFTDYVDSVKGRFTISRDNSKNTLYLQMNSLRAEDTAVYYCNARTSTIYWGQGTQVTVSS

- EC50 [1]: 0.87 nM
B23: R2-4H8 (antibody, V domains shown)
VH: EVQLVESGGGLVQPGGSLRLSCGASGIFFSGVHMGWYRQAPGKERELVALITDSGSADYVDSVKGRFTISRDNAKNTVYLQMNSLKFEDTAVYYCNARTTTIYWGQGTQVTVSS

- EC50 [5]: 0.083 nM
- Kd (cynomolgus PD-L1): 4.34 nM
- Kd (human PD-L1 ECD): 8.12 nM
B24: 5C12-hv7-NT (antibody, V domains shown)
VH: QVQLVESGGGLVKPGGSLRLSCAASGFSASDVVMAWYRQAPGKQREFVSNIAARGSTDYADSVKGRFTISRDNAKNSLYLQMNSLRAEDTAVYYCNALVWTGSSYNNWGQGTQVTVSS

- EC50 [6]: 0.167 nM
- EC50 [7]: 0.055 nM
B25: 4E2-hv3-NT (antibody, V domains shown)
VH: EVQLVESGGGLVKPGGSLRLSCAASGFSAGDVVMAWYRQAPGKQREFVSNIAASSTTYYADSVKGRFTISRDNAKNSLYLQMNSLRAEDTAVYYCNALVWTGSSYNNWGQGTQVTVSS

- EC50 [6]: 0.203 nM
- EC50 [7]: 0.099 nM
B26: 4D2-hv2-NT (antibody, V domains shown)
VH: QVQLVESGGGLVKPGGSLRLSCAASGFSASDVVMAWYRQAPGKQREFVSNLGASSTTRYADSVKGRFTISRDNAKNSLYLQMNSLRAEDTAVYYCNALVWTGSSYNNWGQGTQVTVSS

- EC50 [6]: 0.171 nM
- EC50 [7]: 0.112 nM
B27: 4D2-hv4-NT (antibody, V domains shown)
VH: QVQLVESGGGLVKPGGSLRLSCAASGFSASDVVMAWYRQAPGKQREFVSNLGASSTTNYADSVKGRFTISRDNAKNSLYLQMNSLRAEDTAVYYCNALVWTGSSYNNWGQGTQVTVSS

- EC50 [6]: 0.598 nM
- EC50 [7]: 0.271 nM
B28: 4D2-hv3-NT (antibody, V domains shown)
VH: QVQLVESGGGLVKPGGSLRLSCAASGFSASDVVMAWYRQAPGKQREFVSNLGASSTTYYADSVKGRFTISRDNAKNSLYLQMNSLRAEDTAVYYCNALVWTGSSYNNWGQGTQVTVSS

- EC50 [6]: 0.109 nM
- EC50 [7]: 0.041 nM
B29: 4E2-Alpaca-NT (antibody, V domains shown)
VH: EVQLVESGGGSVQDGGSLTLSCAASGFSAGDVVMAWYRQAPGKQREFVANIAASSTTRYTDSVKGRFTISRDNAKNTVYLQMNSLKSEDTAVYYCNALVWTGSSYNNWGQGTQVTVSS

- EC50 [6]: 0.103 nM
- EC50 [7]: 0.044 nM
B30: 4D2-Alpaca-NT (antibody, V domains shown)
VH: QVQLVESGGGLVQAGGSLRLSCAASGFSASDVVMAWYRQAPGKQREFVANLGASSTTRYADSVKGRFTISRDDAKNTVSLQMNSLKSEDTAVYYCNALVWTGSSYNNWGQGTQVTVSS
